Laboratory results reported in the nanobody polyreactivity screen of Harvey et al. (2022).

Test: yeast display, Sf9 membrane polyspecificity reagent, FACS + sequencing; frameworks hold sequencing errors
Summary of the method: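 Genes from sorted yeast were amplified by colony PCR, read by MiSeq 2 × 250 sequencing and filtered on CDR length. These cells carried a synthetic nanobody library in Saccharomyces cerevisiae BJ5465 and were sorted by FACS into low and high (top ~1%) gates on anti-HA and streptavidin fluorescence. Polyreactivity is labelled according to the gate of origin.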

Sequence | polyreactivity (PSR sort gate)
QVQLVESGGGLVQAGGSLRLSCAASGGTFIMYAMGWYRQAPGKERELVASITWSGGRTYYADSVKGRFTISRDNSKNTVYLQMNSLKPEDTAVYYCNTPPSYIMDYWGQGTQVTVSS | low polyreactivity
QVQLVESGGGLVQAGGSLRLSCAASGSIFSSYAMGWYRQAPGKERELVAAISQNGGSTDYADSVKGRFTISRDKAKNTVYLQMNSLKPEDTAVYYCNAYSVYVRGEYWGQGTQVTVSS | high polyreactivity
QVQLVESGGGLDQAGGSLRLSSAASGFTFERYPMGWDRQAPGKEREMVAAIDWRGVNTYYADSVKGRFTISRHTAKTTVYLQMNSLKPEDTAVYYCNARAYGRYYWGQGTQVTVSS | high polyreactivity
QVQLVESGGGLVQAGGSLRLSCAASGNTLQVYAMGGYRPAPGKERELVARLTGGGRTSYADSVKGRFTISRDNAKTTVYLQMHSLKPEDTAVYYCATVYYGHIVLYDYWGQGTQVTVSA | low polyreactivity
QVQLVESGGGLVQAGGSLRLICAASGNIFSFNDMGWSRPAPGKERELVASITSGGRTNYADSVMGRFTISRDNAKNTVYLQMNSLKPEDTAVYYCAADYSVPTSQAYDYWGQGTQVTVSS | low polyreactivity
QVQLVESGGGLVQAGGSLRLSCAASGSTFENNAMGWYRQAPGKERELVASSTNYADSVKGRFTISRDNAKNTVYLQMNSLKPEDTAVYYCNLDTNSSYEFNSWGQGTQVTVSS | low polyreactivity
QVQHVESGGGLVQAGGSLRLSCAASGSTFDSNDMGWYRQAPGKEWELVPGITWSGASTYYADSVKGRFTISRDNAKNTVYLQMNSLKPEDTAVYYCAAGPWGTGHYVQGPVYYYRYDYWGQGTQVTVSS | low polyreactivity
QVQLVESGGGLVQAGGSLRLSCAASGFIFYYNAMGWYRQAPGKERELVATIRGSGGSTYYADSVKGRFTISRDTAKNTVYLHMNSLKPEDTAVYYCATTIYGLTSRLYYWGQGTQVTVSS | high polyreactivity
QVQLVEYVELLVQAVGILSLSCAASGLTIYYYIMGWYLHAPRKEREFLAAISNSGCRPYYADSVNGRFTISRDNAKNTDYLQMNSLIPEDTPVYYCAAQSRYGGKFLYWGQGTQVTVSS | high polyreactivity
QFQLEESGGGLVQAGGSLRLSCDASGIIINYYAMGWYRQAPGKERELVAAIRISDTTYYADSVKGRFTISRDNAKNTVYLQMNSLKPEDTAVYYCNTLYYYYYGEVYVRDYDYWGQGTHVTVSS | low polyreactivity
QVQLVESGGGLVQAGGSLRLSCAASGSTFSLYAMGWSRQAPGKERELVAAISRSGGRTYYADSVKGRFTISRDNAKNTVYLQMNSLKPEDTAVYYCAADSTSGYYWGQGTQVTVSS | high polyreactivity
QVQLVESGGVLVQAGGSLRLTCAASASILYVYAMGWYRHAPGKERELVATITGRVVSTNYADSVKGRFTSSRDNAKNTVYLQMNSLKTEDTALYYCAASTRRRRGEYDYCGQGTQVTVSS | high polyreactivity
QVQLVESGGGLVQAGGTLRLSCAASVFTFYYNTMGWYRQAPGKERELVAGIDISGSSTYADSVKGRFTISRDNAKNTVYLQMNSLKPEDTAVYYCAAVYFWGMDYWGQGTQVTVSS | low polyreactivity
QVQLVESGGGLVQAGGSLRLSCAASGLTFSRYAMGWYRQAPGKERELVAAITWSGSSTYYADSVKGRFTISRDNAKNTVYLQMNSLKPEDTAVYYCAARYGYSRGPYYRSDYWGQGTQVTVSS | high polyreactivity
QVQRVESGGGLVQAGGSLRLSCAASGSTLRKYVMGWYRQAPGKERELVAAISSSGGRTYYADSVKGRFTISRDNAKYTVYLQMNSLKPEDTAVYYCAATRYIPGFYYWGQGTQVTVSS | high polyreactivity
QVQLVESGGGLVQAGGRLRLSCAASGRIFVVYAMGWSRQAPGKERELVAAISKRGGSTYYADSVKGRFTISRDNAKYTVYLQMNTLKPEDTAVYYCAAGRYKSDLMDYWGQGTQVTVSS | high polyreactivity

Sequence | polyreactivity (PSR sort gate)
QVQLVESGGGLVQAGGSLRISCAASGFIFRLYAMGWYRQAPGKERELVAAIRWSGGSTTYADSVKGRFTISRDNAKNTVYLQMNSLNPEDTAVYYCAATAGRRSVTYGYWGQGTQVTVSS | high polyreactivity
QVQLVETGGVLVQAGGSLRLSCAASGRIFFYYVMGWYRQAPGKERELVAGITRGGITNYADSVKGRLTISRDNAKNTVYLQMNSLKPEDTAVYYCKARAPSYYRYRASAAYDYWGLGTQVTVSS | high polyreactivity
QVQLVESGGGLVQAGGSLRLSCAASGFIFYAYVMGWYRQAPGKERELVAAISRNGGSTYYADSVKGRFTISRDNAKNTVYLQMKSLKPEDTAVYYCAALSYYRYSQEDDYWGQGTQVTVSS | high polyreactivity
QVQLVESGGGLVQAGGSLRLSCAASGRIFASNAMGWYRPAPGKERELVAAITTTGGSTYYADSVKGRFTISRDNAKNTVYLQMNSLKPEDTAVYYCAKRLGYRYPTYDYWGQGTQVTVSS | high polyreactivity
QVQLVESGGGIVQAGGSLRLSCAASGSTFSYYDMGWYRQAPGKERELVAAISWNGGTTYYADSVKGRFTISRDNAKNTVYLQMNSLKPEDTAVYYCAATWDFYWAPYDSWGQGTQVTVSS | low polyreactivity
QVQLVESGGGLVQAGGSLRLSCAASGFTFGIYAMGRYRQAPGKERELVAAISRSGGSTYYADSVKGRFTISRDNAKNTVYLQMNSLKPEDTAVYYCNTRWGYARGGRYGYWGQGTQVTVSS | high polyreactivity
QVQLVESGGGLVQAGGSLRLSCAASGSTFLTKAMGWNRQAPGKERELVAAISRSGGSTYYADSVKGRFTISRDNAKNTVYLQMNSLKPEDTAVYYGAAYSWRYQAWEFGYWGQGTQVTVSS | high polyreactivity
QVQLVESGGGLVQAGGSLRLSCAASGRTSRIYAMGLYRQAPGKERELVASISRRGGITYYADSVKGRFTISRDNAKTTVDFQMTSLKPEDTAVYYSASYYTNKVPARYYWGQGTEVTVSS | high polyreactivity
QVQLVESGGGLVQAGGSLRLSCAASGFTFDPYAMGWYRQAPGKERELVAAISISGGRTYYADSVKGRFTISRDNAKNTVYLQMNSLKPEDTAVYYCAVAQSHYFGGYGYWGQGTQVTVSS | low polyreactivity
QVQLVESGGGLVQAGGSLRLSCAASGSIFVPNAMGRYRQAPGKERELVAAITSGGSTYYADSVKGRFTISRDNAKNTVYLQMNSLKPEDTAVYYCAADIGSQYFGHYDYWGQGTQVTVSS | high polyreactivity
QVQLQERGGGLVQAGGSLRLSCAASCTIFRFRYMGGHRQAPGKERELVAGINGGTTTYYADSEIGRFTMSRDNAKNTLYLQMNSLKPDDTAVYNCAAGDSRLTYYDYWGQGTQVTVSS | low polyreactivity
QVQLVESGGGLVQAGGSLRLSCAASGSTFQWNTMGWYRQAPGKERELVARITGGGGSTYYADSVKGRFTISRDNAKNTVYLQMNSLKPEDTAVYYCNAAIFGRYEYWGQGTQVTVSS | low polyreactivity
QVQLVESGGGLVQAGGRLRLSCAASGITFTVFAMGWYRQAPGKERELVAAISQSGGSTYYADSVKGRFTISRDNAKNTVYLQMNILNPEDTAVYYCAKTLPSNGHYDYWGQGTQVTVSS | low polyreactivity
QVQLVESGGGLVQAGGSLRLSCAASGRTFGYYAMGWYRQSPGKERELVAAITSGGRTYYADSVKGRFTISRDNAKNTVYLQMNSLKPEDTAVYYCNAPARWGSRVAWYEYWGQGTQVSVSS | high polyreactivity
QVQLVESGGGLVQAGGSLRLSCAASGIIFWDNAMGWYRQAPGKERELVASINYSGGSTYYADSVKGRFTISRDNAKNTVYLQMNSLKPEDTAVYYCAARTVTLDDWDYAYDYWGQGTQVTVSS | low polyreactivity
QVQLVESGGGLVQAGGSLRLSCAASGFTIWDYAMGWYRQAPGKERELVAAISRRGGTTYYADSVKGRFTISRDNAKNTVYLQMNSLKPEETAVYYCATYSYTWLNYYWGQGTQVTVSS | high polyreactivity
